B1: wild type rod opsin-EGFP / rod opsin-mCherry (receptor, mouse, UniProt P15409 1-348, looked up)
chain: MNGTEGPNFYVPFSNVTGVVRSPFEQPQYYLAEPWQFSMLAAYMFLLIVLGFPINFLTLYVTVQHKKLRTPLNYILLNLAVADLFMVFGGFTTTLYTSLHGYFVFGPTGCNLEGFFATLGGEIALWSLVVLAIERYVVVCKPMSNFRFGENHAIMGVVFTWIMALACAAPPLVGWSRYIPEGMQCSCGIDYYTLKPEVNNESFVIYMFVVHFTIPMIVIFFCYGQLVFTVKEAAAQQQESATTQKAEKEVTRMVIIMVIFFLICWLPYASVAFYIFTHQGSNFGPIFMTLPAFFAKSSSIYNPVIYIMLNKQFRNCMLTTLCCGKNPLGDDDASATASKTETSQVAPA

Experiments:
[1] = biological target: Src13-GCN4-EGFP / Src13-GCN4-mCH; assay: PIE-FCCS
PIE-FCCS = biological target: the molecule itself; assay: PIE-FCCS

Row | Molecule | fc, fraction correlated [1] | fc (mean), fraction correlated (PIE-FCCS) | fc (median), fraction correlated (PIE-FCCS)
1 | Src13-GCN4-EGFP / Src13-GCN4-mCH | 0.13 | – | –
2 | B1 | – | 0.114 | 0.107
